As usually defined, the stoichiometry N is a count of units in the complex or per binding partner.

The results in this text go back to PMC3959867 (Science (New York, N.Y.), 2012).

Series [1] concerns the target K11V-TR, cylindrin tandem repeat V2L variant. Kind of series: crystal structure.
Series [2] shares this target. Kind of series: SEC. In general terms: In gel filtration, larger molecules generally elute earlier.
Series [3] has the same target. Kind of series: native MS.
The series “crystal structure” concerns the molecule itself. As to the kind of experiment: crystal structure.

In the case of “K11V-TR, cylindrin tandem repeat V2L variant (peptide)”, the stoichiometry N in series [1], in series [2] and in series [3] was 3 throughout.
For GDVIEV [G6V, six-residue segment GDVIEV of alphaB crystallin], the binding result in “crystal structure” is reported as “binds”.
